For assay [1], the target named is T1, TFIIAα/β/γ: recombinant rat TFIIAα/β (p55) together with recombinant rat TFIIAγ (p12) (rat, UniProt O08949 1-377; O08950 1-109).
T1 construct: also called TFIIAα/β (p55) and TFIIAγ (p12)
T1 sequence (looked up) 1: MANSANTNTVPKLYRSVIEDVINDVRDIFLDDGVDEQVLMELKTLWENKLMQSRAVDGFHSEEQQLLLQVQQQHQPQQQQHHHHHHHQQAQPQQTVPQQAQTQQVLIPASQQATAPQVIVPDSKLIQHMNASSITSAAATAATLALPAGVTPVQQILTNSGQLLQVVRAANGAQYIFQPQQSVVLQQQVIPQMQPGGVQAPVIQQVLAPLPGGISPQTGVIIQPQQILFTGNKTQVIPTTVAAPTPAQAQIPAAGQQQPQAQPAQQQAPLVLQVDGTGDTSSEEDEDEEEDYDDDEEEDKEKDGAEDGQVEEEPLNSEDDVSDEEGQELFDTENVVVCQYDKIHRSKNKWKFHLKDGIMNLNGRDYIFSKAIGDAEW
T1 sequence (looked up) 2: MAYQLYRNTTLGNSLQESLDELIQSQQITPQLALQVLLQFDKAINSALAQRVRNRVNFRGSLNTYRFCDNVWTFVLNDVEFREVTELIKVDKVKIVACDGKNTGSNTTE
Kind of assay: electrophoretic mobility shift assay on labelled AdML TATA oligonucleotide, under conditions in which TBP alone does not bind DNA. Here is the method:
(§1) Mobility shift assays were performed using 10 fmol of a [γ-³²P] ATP kinase-labeled TATA-containing an oligonucleotide that spans nucleotides −40 to −16 of the Adenovirus Major Late (AdML) promoter. Binding reactions (25 μl final volume) were performed in 10 mM HEPES (pH 7.9), 2% (wt/vol) PEG-8000, 60 mM KCl, 5 mM DTT, 0.2 mM EDTA, 5 mM ammonium sulfate, 4 mM MgC1₂, and 8% glycerol. Recombinant rat p55 (30 ng; 29 nM), rat p12 (1.1 ug; 3.5 uM), human ALF (180 ng; 137 nM) and human TBP (125 ng; 133 nM) were added to reactions as indicated. Reactions were incubated for 30 minutes at room temperature, and complexes are separated on native 5% polyacrylamide gels containing 0.5×TBE and 5% glycerol. Competition experiments contain either cold AdML TATA or SP1 oligonucleotides, and antibody supershift reactions contain 2-4 μl of rabbit polyclonal antiserum raised against the 55 kD hTFIIAα/β polypeptide (3).
(§2) The activity of polypeptides was tested in electrophoretic mobility shift assays under conditions in which TATA-Binding Protein (TBP) alone is unable to bind DNA (FIG. 12B, lane 1). The presence of TFIIAα/β (p55) and TFIIAγ (p12) stabilized the TBP-DNA interaction via TFIIAα/β/γ-TBP-DNA complex formation (lane 2). Likewise, the recombinant ALF (p69) polypeptide, in conjunction with the TFIIAγ (p12) subunit, was able to form ALF/γ-TBP-DNA complexes (lane 5). […]

For assay [2], the target named is T2, ALF/γ: recombinant human ALF (p69) together with recombinant rat TFIIAγ (p12) (human; rat, UniProt O08950 1-109).
T2 construct: also called ALF (p69) and TFIIAγ (p12)
T2 sequence 1: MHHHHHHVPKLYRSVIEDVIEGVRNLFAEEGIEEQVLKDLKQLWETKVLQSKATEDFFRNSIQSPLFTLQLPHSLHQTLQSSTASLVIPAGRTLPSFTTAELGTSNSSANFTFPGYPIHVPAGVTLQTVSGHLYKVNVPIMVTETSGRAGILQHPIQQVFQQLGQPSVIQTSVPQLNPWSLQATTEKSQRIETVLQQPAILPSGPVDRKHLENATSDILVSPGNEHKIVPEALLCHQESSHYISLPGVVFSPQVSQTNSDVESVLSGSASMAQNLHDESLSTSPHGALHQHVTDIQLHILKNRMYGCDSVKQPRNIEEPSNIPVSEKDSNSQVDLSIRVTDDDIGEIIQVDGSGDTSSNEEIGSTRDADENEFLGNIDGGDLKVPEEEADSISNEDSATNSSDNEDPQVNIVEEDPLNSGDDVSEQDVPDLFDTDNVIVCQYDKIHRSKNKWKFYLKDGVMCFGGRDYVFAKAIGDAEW
T2 sequence 2: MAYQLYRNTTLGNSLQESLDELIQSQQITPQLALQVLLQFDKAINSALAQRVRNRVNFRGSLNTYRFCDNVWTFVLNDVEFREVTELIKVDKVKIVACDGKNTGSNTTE
The description is as above. The protocol:
as §1, §2

Assay [3] deals with T3, recombinant histidine-tagged human ALF (TFIIAα/β-like factor) polypeptide, residues Val7 to Trp478 (human, UniProt Q9UNN4 7-478).
T3 construct: 479 amino acid polypeptide expressed in E. coli from pRSET-ALF, purified under denaturing conditions on Ni-NTA and renatured; migrates at 69 kD; also called p69; p69 (ALF)
T3 sequence: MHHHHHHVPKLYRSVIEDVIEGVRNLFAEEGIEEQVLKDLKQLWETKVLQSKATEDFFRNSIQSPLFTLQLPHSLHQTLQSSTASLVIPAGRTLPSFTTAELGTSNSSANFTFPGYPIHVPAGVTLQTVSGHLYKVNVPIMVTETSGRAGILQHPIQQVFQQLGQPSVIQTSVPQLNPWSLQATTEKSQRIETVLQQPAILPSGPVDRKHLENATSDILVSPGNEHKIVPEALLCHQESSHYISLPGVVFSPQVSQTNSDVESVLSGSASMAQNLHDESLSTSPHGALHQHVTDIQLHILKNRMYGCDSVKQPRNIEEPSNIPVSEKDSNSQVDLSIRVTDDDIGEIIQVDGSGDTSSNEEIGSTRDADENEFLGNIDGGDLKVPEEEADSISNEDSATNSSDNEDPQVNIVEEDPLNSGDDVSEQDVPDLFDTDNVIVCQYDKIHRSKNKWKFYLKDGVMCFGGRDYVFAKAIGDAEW
Briefly: electrophoretic mobility shift assay; both subunits stand in one complex with TBP and DNA. The protocol: as §1, §2

The target in assay [4] is T4, recombinant rat TFIIAα/β (p55) subunit (rat, UniProt O08949 1-377).
T4 construct: also called rat p55
T4 sequence (looked up): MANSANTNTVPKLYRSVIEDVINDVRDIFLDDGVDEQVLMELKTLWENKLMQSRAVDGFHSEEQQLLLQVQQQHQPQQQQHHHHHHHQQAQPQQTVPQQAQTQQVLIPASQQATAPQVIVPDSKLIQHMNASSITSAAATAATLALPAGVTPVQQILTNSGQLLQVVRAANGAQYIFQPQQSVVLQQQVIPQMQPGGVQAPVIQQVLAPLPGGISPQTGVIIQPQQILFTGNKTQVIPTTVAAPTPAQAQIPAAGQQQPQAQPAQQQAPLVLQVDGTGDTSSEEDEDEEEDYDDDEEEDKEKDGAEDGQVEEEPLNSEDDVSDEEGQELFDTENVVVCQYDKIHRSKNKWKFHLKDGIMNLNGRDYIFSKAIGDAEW
The description is as above. The protocol:
as §1, §2

B1: recombinant histidine-tagged human TATA binding protein (TBP) (other, UniProt P20226 1-339, looked up)
chain: MDQNNSLPPYAQGLASPQGAMTPGIPIFSPMMPYGTGLTPQPIQNTNSLSILEEQQRQQQQQQQQQQQQQQQQQQQQQQQQQQQQQQQQQQQQQQAVAAAAVQQSTSQQATQGTSGQAPQLFHSQTLTTAPLPGTTPLYPSPMTPMTPITPATPASESSGIVPQLQNIVSTVNLGCKLDLKTIALRARNAEYNPKRFAAVIMRIREPRTTALIFSSGKMVCTGAKSEEQSRLAARKYARVVQKLGFPAKFLDFKIQNMVGSCDVKFPIRLEGLVLTHQQFSSYEPELFPGLIYRMIKPRIVLLIFVSGKVVLTGAKVRAEIYEAFENIYPILKGFRKTT
notes: In the mobility shift assay TBP stood together with a labelled AdML TATA oligonucleotide (-40 to -16); also called human TBP; not shown: histidine tag
As to B1, the binding result in assay [1] and in assay [2] was “binds” in each case.

B2: recombinant rat TFIIAγ (p12) subunit (other, UniProt O08950 1-109, looked up)
chain: MAYQLYRNTTLGNSLQESLDELIQSQQITPQLALQVLLQFDKAINSALAQRVRNRVNFRGSLNTYRFCDNVWTFVLNDVEFREVTELIKVDKVKIVACDGKNTGSNTTE
notes: also called rat p12; p12 (TFIIAγ)
Take B2: the binding result in assay [3] and in assay [4] was “binds” throughout.

These data come from patent US20030013152A1 (University of Texas, published 2003).
